Here are results for eight sequences from US20210147922.

Common to all, as to assay: cell_activity
Data set [1] relates to AAVS1_R TALEN right monomer. The following applies: paired with AAVS1_L, 2 ug per monomer, K562 cells.
Data set [2] relates to GA6_EK TALEN right monomer. The note with it: GA6_EK pair; GA6 54% in same table.
Data set [3] deals with GA6_R TALEN right monomer. The following applies: paired with GA6_L, 2 ug mRNA per monomer, K562 cells.
The test system of data set [4] is GA7_EK TALEN right monomer. The following applies: GA7_EK pair, CD34+ cells; GA7 50%.
The subject of data set [5] is GA7_R TALEN right monomer. The note with it: paired with GA7_L, 2 ug per monomer, CD34+ cells.
Data set [6] concerns AAVS1_L TALEN left monomer. The following applies: paired with AAVS1_R, 2 ug per monomer, K562 cells.
In data set [7] the test system is GA7_EK TALEN left monomer. The following applies: GA7_EK pair, CD34+ cells; GA7 50%.
In a further data set the test system is GA7_L TALEN left monomer. The note with it: paired with GA7_R, 2 ug per monomer, CD34+ cells.
The test system of data set [8] is GA6_L19 TALEN left monomer. The note with it: paired with GA6_R, K562 cells.
Data set [9] has as its system GA6_EK TALEN left monomer. The following applies: GA6_EK pair; GA6 54% in same table.
The test system of data set [10] is GA6_L (GA6_L14) TALEN left monomer. The note with it: paired with GA6_R, K562 cells.
Data set [11] deals with GA6_L17 TALEN left monomer. The note with it: paired with GA6_R, K562 cells.

In turn, “AGGATTGGTGACAGAAA (double strand) [AAVS1 right half-site (printed top strand)]” returned an activity in data set [1] of 93 % editing.
Consider “AGTGCATGGCTGCAATGTGTGA (double strand) [GA6 right half-site (printed top strand)]”, for which the activity in data set [2] came out at 36 % editing; in data set [3], 91 % editing.
Turning to “ATGGTAGAGAATGAGAGGGGGA (double strand) [GA7 right half-site (printed top strand)]”, the results for the activity in data set [4] and in data set [5] were 20 % editing and 70 % editing, respectively.
Consider “TCCCCTCCACCCCACAGT (double strand) [AAVS1 left half-site]”, for which the activity in data set [6] came out at 93 % editing.
In the case of “TGCTCAGCCCAGCTCAGCCT (double strand) [GA7 left half-site]”, the values for the activity (in data set [7]; in the data set with GA7_L TALEN left monomer) were 20 % editing and 70 % editing, respectively.
For the sequence “TGGAGTGTGTAACAATGCCT (double strand) [GA6_L19 left half-site]”, the activity in data set [8] is 86 % editing.
On to “TGTGTAACAATGCCT (double strand) [GA6 left half-site]”, for which the activity was 36 % editing in [9] and 96 % editing in data set [10].
“TGTGTAACAATGCCTGTG (double strand) [GA6_L17 left half-site]” yielded an activity in data set [11] of 98 % editing.
